T1: Fc fragment SEQ ID NO: 596 (coexpressed with the M252Y/S254T/T256E heavy chains) (Homo sapiens (Human), UniProt P01857 104-328 = IgG part)
T1 construct: Fc fragment without CH3 interface modification
T1 chain: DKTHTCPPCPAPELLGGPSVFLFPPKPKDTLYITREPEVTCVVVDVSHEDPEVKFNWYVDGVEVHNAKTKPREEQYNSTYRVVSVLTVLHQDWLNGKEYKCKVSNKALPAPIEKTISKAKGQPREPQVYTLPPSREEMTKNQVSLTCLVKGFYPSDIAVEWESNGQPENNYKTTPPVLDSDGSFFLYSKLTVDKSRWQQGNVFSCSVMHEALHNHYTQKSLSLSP

T2: Fc fragment SEQ ID NO: 598 (partner of the L234A/L235A/P329G heavy chains) (human, UniProt P01857 104-328 = IgG part, limits assumed)
T2 construct: IgG1 Fc fragment without homodimer-promoting modification
T2 chain: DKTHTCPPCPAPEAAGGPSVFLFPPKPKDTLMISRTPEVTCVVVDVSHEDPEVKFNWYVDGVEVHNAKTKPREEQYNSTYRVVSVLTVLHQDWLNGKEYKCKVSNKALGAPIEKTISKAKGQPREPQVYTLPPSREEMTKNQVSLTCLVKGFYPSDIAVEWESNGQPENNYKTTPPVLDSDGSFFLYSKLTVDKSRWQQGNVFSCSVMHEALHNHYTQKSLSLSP


How the values were obtained:
[1] = molecular target: the molecule itself; test: SEC peak area ratio; full-length heavy chain, light chain and Fc fragment coexpressed in Expi293F, affinity purified
[2] = molecular target: T1, Fc fragment SEQ ID NO: 596 (coexpressed …); test: as above
[3] = molecular target: the molecule itself; test: SEC peak area ratio; full-length heavy chain, light chain and Fc fragment coexpressed in Expi293F, Protein A purified
[4] = molecular target: T2, Fc fragment SEQ ID NO: 598 (partner of …); test: as above

| Binder | Homo full-length heavy chain (%) [1] [%] | Heteromultimer (%) [2] [%] | Homo full-length heavy chain (%) [3] [%] | Heteromultimer (%) [4] [%] |
| --- | --- | --- | --- | --- |
| Full-length heavy chain with M252Y/S254T/T256E (enhance FcRn binding), no CH3 modification (SEQ ID NO: 143), with light chain SEQ ID NO: 61 (antibody, human IgG1, kappa) heavy: QVQLQESGPGLVRPSQTLSLTCTVSGYSITSDHAWSWVRQPPGRGLEWIGYISYSGITTYNPSLKSRVTMLRDTSKNQFSLRLSSVTAADTAVYYCARSLARTTAMDYWGQGSLVTVSSASTKGPSVFPLAPSSKSTSGGTAALGCLVKDYFPEPVTVSWNSGALTSGVHTFPAVLQSSGLYSLSSVVTVPSSSLGTQTYICNVNHKPSNTKVDKRVEPKSCDKTHTCPPCPAPELLGGPSVFLFPPKPKDTLYITREPEVTCVVVDVSHEDPEVKFNWYVDGVEVHNAKTKPREEQYNSTYRVVSVLTVLHQDWLNGKEYKCKVSNKALPAPIEKTISKAKGQPREPQVYTLPPSREEMTKNQVSLTCLVKGFYPSDIAVEWESNGQPENNYKTTPPVLDSDGSFFLYSKLTVDKSRWQQGNVFSCSVMHEALHNHYTQKSLSLSP light: not shown | 16.3 | 50.1 | – | – |
| Full-length heavy chain with M252Y/S254T/T256E (enhance FcRn binding) and E356K/K392D/D399K/K439E (SEQ ID NO: 147), with light chain SEQ ID NO: 61 (antibody, human IgG1, kappa) heavy: QVQLQESGPGLVRPSQTLSLTCTVSGYSITSDHAWSWVRQPPGRGLEWIGYISYSGITTYNPSLKSRVTMLRDTSKNQFSLRLSSVTAADTAVYYCARSLARTTAMDYWGQGSLVTVSSASTKGPSVFPLAPSSKSTSGGTAALGCLVKDYFPEPVTVSWNSGALTSGVHTFPAVLQSSGLYSLSSVVTVPSSSLGTQTYICNVNHKPSNTKVDKRVEPKSCDKTHTCPPCPAPELLGGPSVFLFPPKPKDTLYITREPEVTCVVVDVSHEDPEVKFNWYVDGVEVHNAKTKPREEQYNSTYRVVSVLTVLHQDWLNGKEYKCKVSNKALPAPIEKTISKAKGQPREPQVYTLPPSRKEMTKNQVSLTCLVKGFYPSDIAVEWESNGQPENNYDTTPPVLKSDGSFFLYSKLTVDKSRWQQGNVFSCSVMHEALHNHYTQESLSLSP light: not shown | 61.6 | 0 | – | – |
| Full-length heavy chain with M252Y/S254T/T256E (enhance FcRn binding) and Q347R/K360E/D399V/F405T/K409W (SEQ ID NO: 146), with light chain SEQ ID NO: 61 (antibody, human IgG1, kappa) heavy: QVQLQESGPGLVRPSQTLSLTCTVSGYSITSDHAWSWVRQPPGRGLEWIGYISYSGITTYNPSLKSRVTMLRDTSKNQFSLRLSSVTAADTAVYYCARSLARTTAMDYWGQGSLVTVSSASTKGPSVFPLAPSSKSTSGGTAALGCLVKDYFPEPVTVSWNSGALTSGVHTFPAVLQSSGLYSLSSVVTVPSSSLGTQTYICNVNHKPSNTKVDKRVEPKSCDKTHTCPPCPAPELLGGPSVFLFPPKPKDTLYITREPEVTCVVVDVSHEDPEVKFNWYVDGVEVHNAKTKPREEQYNSTYRVVSVLTVLHQDWLNGKEYKCKVSNKALPAPIEKTISKAKGQPREPRVYTLPPSREEMTENQVSLTCLVKGFYPSDIAVEWESNGQPENNYKTTPPVLVSDGSFTLYSWLTVDKSRWQQGNVFSCSVMHEALHNHYTQKSLSLSP light: not shown | 63.3 | 0 | – | – |
| Full-length heavy chain with M252Y/S254T/T256E (enhance FcRn binding) and T366W/L368A/Y407V (SEQ ID NO: 145), with light chain SEQ ID NO: 61 (antibody, human IgG1, kappa) heavy: QVQLQESGPGLVRPSQTLSLTCTVSGYSITSDHAWSWVRQPPGRGLEWIGYISYSGITTYNPSLKSRVTMLRDTSKNQFSLRLSSVTAADTAVYYCARSLARTTAMDYWGQGSLVTVSSASTKGPSVFPLAPSSKSTSGGTAALGCLVKDYFPEPVTVSWNSGALTSGVHTFPAVLQSSGLYSLSSVVTVPSSSLGTQTYICNVNHKPSNTKVDKRVEPKSCDKTHTCPPCPAPELLGGPSVFLFPPKPKDTLYITREPEVTCVVVDVSHEDPEVKFNWYVDGVEVHNAKTKPREEQYNSTYRVVSVLTVLHQDWLNGKEYKCKVSNKALPAPIEKTISKAKGQPREPQVYTLPPSREEMTKNQVSLWCAVKGFYPSDIAVEWESNGQPENNYKTTPPVLDSDGSFFLVSKLTVDKSRWQQGNVFSCSVMHEALHNHYTQKSLSLSP light: not shown | 62.3 | 0 | – | – |
| Full-length heavy chain with M252Y/S254T/T256E (enhance FcRn binding) and T394W/F405A (SEQ ID NO: 144), with light chain SEQ ID NO: 61 (antibody, human IgG1, kappa) heavy: QVQLQESGPGLVRPSQTLSLTCTVSGYSITSDHAWSWVRQPPGRGLEWIGYISYSGITTYNPSLKSRVTMLRDTSKNQFSLRLSSVTAADTAVYYCARSLARTTAMDYWGQGSLVTVSSASTKGPSVFPLAPSSKSTSGGTAALGCLVKDYFPEPVTVSWNSGALTSGVHTFPAVLQSSGLYSLSSVVTVPSSSLGTQTYICNVNHKPSNTKVDKRVEPKSCDKTHTCPPCPAPELLGGPSVFLFPPKPKDTLYITREPEVTCVVVDVSHEDPEVKFNWYVDGVEVHNAKTKPREEQYNSTYRVVSVLTVLHQDWLNGKEYKCKVSNKALPAPIEKTISKAKGQPREPQVYTLPPSREEMTKNQVSLTCLVKGFYPSDIAVEWESNGQPENNYKTWPPVLDSDGSFALYSKLTVDKSRWQQGNVFSCSVMHEALHNHYTQKSLSLSP light: not shown | 69.8 | 0 | – | – |
| Full-length heavy chain SEQ ID NO: 153 (L234A/L235A/P329G; no homodimer-promoting modification) with light chain SEQ ID NO: 61 (antibody, human IgG1, kappa, L234A L235A) heavy: QVQLQESGPGLVRPSQTLSLTCTVSGYSITSDHAWSWVRQPPGRGLEWIGYISYSGITTYNPSLKSRVTMLRDTSKNQFSLRLSSVTAADTAVYYCARSLARTTAMDYWGQGSLVTVSSASTKGPSVFPLAPSSKSTSGGTAALGCLVKDYFPEPVTVSWNSGALTSGVHTFPAVLQSSGLYSLSSVVTVPSSSLGTQTYICNVNHKPSNTKVDKRVEPKSCDKTHTCPPCPAPEAAGGPSVFLFPPKPKDTLMISRTPEVTCVVVDVSHEDPEVKFNWYVDGVEVHNAKTKPREEQYNSTYRVVSVLTVLHQDWLNGKEYKCKVSNKALGAPIEKTISKAKGQPREPQVYTLPPSREEMTKNQVSLTCLVKGFYPSDIAVEWESNGQPENNYKTTPPVLDSDGSFFLYSKLTVDKSRWQQGNVFSCSVMHEALHNHYTQKSLSLSP light: not shown | – | – | 22.6 | 51.4 |
| Full-length heavy chain SEQ ID NO: 154 (L234A/L235A/P329G; T394W/F405A) with light chain SEQ ID NO: 61 (antibody, human IgG1, kappa, L234A L235A) heavy: QVQLQESGPGLVRPSQTLSLTCTVSGYSITSDHAWSWVRQPPGRGLEWIGYISYSGITTYNPSLKSRVTMLRDTSKNQFSLRLSSVTAADTAVYYCARSLARTTAMDYWGQGSLVTVSSASTKGPSVFPLAPSSKSTSGGTAALGCLVKDYFPEPVTVSWNSGALTSGVHTFPAVLQSSGLYSLSSVVTVPSSSLGTQTYICNVNHKPSNTKVDKRVEPKSCDKTHTCPPCPAPEAAGGPSVFLFPPKPKDTLMISRTPEVTCVVVDVSHEDPEVKFNWYVDGVEVHNAKTKPREEQYNSTYRVVSVLTVLHQDWLNGKEYKCKVSNKALGAPIEKTISKAKGQPREPQVYTLPPSREEMTKNQVSLTCLVKGFYPSDIAVEWESNGQPENNYKTWPPVLDSDGSFALYSKLTVDKSRWQQGNVFSCSVMHEALHNHYTQKSLSLSP light: not shown | – | – | 62.8 | 0 |
| Full-length heavy chain SEQ ID NO: 155 (L234A/L235A/P329G; T366W/L368A/Y407V) with light chain SEQ ID NO: 61 (antibody, human IgG1, kappa, L234A L235A) heavy: QVQLQESGPGLVRPSQTLSLTCTVSGYSITSDHAWSWVRQPPGRGLEWIGYISYSGITTYNPSLKSRVTMLRDTSKNQFSLRLSSVTAADTAVYYCARSLARTTAMDYWGQGSLVTVSSASTKGPSVFPLAPSSKSTSGGTAALGCLVKDYFPEPVTVSWNSGALTSGVHTFPAVLQSSGLYSLSSVVTVPSSSLGTQTYICNVNHKPSNTKVDKRVEPKSCDKTHTCPPCPAPEAAGGPSVFLFPPKPKDTLMISRTPEVTCVVVDVSHEDPEVKFNWYVDGVEVHNAKTKPREEQYNSTYRVVSVLTVLHQDWLNGKEYKCKVSNKALGAPIEKTISKAKGQPREPQVYTLPPSREEMTKNQVSLWCAVKGFYPSDIAVEWESNGQPENNYKTTPPVLDSDGSFFLVSKLTVDKSRWQQGNVFSCSVMHEALHNHYTQKSLSLSP light: not shown | – | – | 63.9 | 0 |

From patent publication US20260217835A1 (published 2026)
